Results taken from doi:10.1101/2025.09.04.674342, “Tandem association of CLOCK:BMAL1 complexes on DNA enables recruitment of CBP/p300 through multivalent interactions” (bioRxiv, 2025).
Where “and” joins values, the source holds several entries; their conditions need not be identical. Equal values may be shown once. Each block holds one substance with its values, some of them ahead of it.

Key:
[1] = target: human histone octamer in the nucleosome core particle (Widom 601 DNA with tandem E-boxes) (human) (UniProt P04908); assay: mass photometry; NCP tandem 6bp 10 nM with CLOCK:BMAL1 bHLH-PAS-AB 60 nM (1:6), 30 min at room temperature; 20 mM Tris-HCl pH 7.5, 100 mM KCl, 0.5 mM TCEP
[2] = target: BMAL1 TAD L606A/L607A (residues 579–626) (mouse) (UniProt Q9WTL8); assay: NMR titration; 15N-1H HSQC of 100 μM 15N BMAL1 TAD WT or L606A/L607A with stepwise additions of CBP KIX (WT or 3mut), TAZ1 or TAZ2; 25°C; 10 mM MES pH 6.5, 50 mM NaCl, 10% D2O; KD from fits of concentration-dependent CSPs, apparent
Sequence of BMAL1 TAD L606A/L607A (residues 579–626) (mouse) (Q9WTL8 585-632 L612A/L613A): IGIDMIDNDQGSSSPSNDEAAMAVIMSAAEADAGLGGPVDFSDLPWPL

[3] = target: BMAL1 TAD (residues 579–626) (mouse) (UniProt Q9WTL8); assay: as above
Sequence of BMAL1 TAD (residues 579–626) (mouse) (Q9WTL8 585-632): as the sequence (Q9WTL8 585-632 L612A/L613A) above, with A28L, A29L counted along it

stoichiometry N [1]: 2 and 3
Substance: CLOCK:BMAL1 bHLH-PAS-AB heterodimer (from UniProt O08785 26-395; Q9WTL8-4 62-441) (complex)

Kd [2]: 190 µM
Substance: CBP KIX domain (residues 586–672) (from UniProt P45481 586-672) (domain or fragment)

Kd [3]: 160 µM
Substance: CBP KIX Y650A/A654Q/Y658A (3mut) (from UniProt P45481 586-672) (domain or fragment)
